Test results as given in IntAct's records for PubMed 16228008.

B1: E3 ubiquitin-protein ligase CBL-B (Homo sapiens), Q13191-1 (parent)
chain: MANSMNGRNPGGRGGNPRKGRILGIIDAIQDAVGPPKQAAADRRTVEKTWKLMDKVVRLCQNPKLQLKNSPPYILDILPDTYQHLRLILSKYDDNQKLAQLSENEYFKIYIDSLMKKSKRAIRLFKEGKERMYEEQSQDRRNLTKLSLIFSHMLAEIKAIFPNGQFQGDNFRITKADAAEFWRKFFGDKTIVPWKVFRQCLHEVHQISSGLEAMALKSTIDLTCNDYISVFEFDIFTRLFQPWGSILRNWNFLAVTHPGYMAFLTYDEVKARLQKYSTKPGSYIFRLSCTRLGQWAIGYVTGDGNILQTIPHNKPLFQALIDGSREGFYLYPDGRSYNPDLTGLCEPTPHDHIKVTQEQYELYCEMGSTFQLCKICAENDKDVKIEPCGHLMCTSCLTAWQESDGQGCPFCRCEIKGTEPIIVDPFDPRDEGSRCCSIIDPFGMPMLDLDDDDDREESLMMNRLANVRKCTDRQNSPVTSPGSSPLAQRRKPQPDPLQIPHLSLPPVPPRLDLIQKGIVRSPCGSPTGSPKSSPCMVRKQDKPLPAPPPPLRDPPPPPPERPPPIPPDNRLSRHIHHVESVPSRDPPMPLEAWCPRDVFGTNQLVGCRLLGEGSPKPGITASSNVNGRHSRVGSDPVLMRKHRRHDLPLEGAKVFSNGHLGSEEYDVPPRLSPPPPVTTLLPSIKCTGPLANSLSEKTRDPVEEDDDEYKIPSSHPVSLNSQPSHCHNVKPPVRSCDNGHCMLNGTHGPSSEKKSNIPDLSIYLKGDVFDSASDPVPLPPARPPTRDNPKHGSSLNRTPSDYDLLIPPLGEDAFDALPPSLPPPPPPARHSLIEHSKPPGSSSRPSSGQDLFLLPSDPFVDLASGQVPLPPARRLPGENVKTNRTSQDYDQLPSCSDGSQAPARPPKPRPRRTAPEIHHRKPHGPEAALENVDAKIAKLMGEGYAFEEVKRALEIAQNNVEVARSILREFAFPPPVSPRLNL
partner: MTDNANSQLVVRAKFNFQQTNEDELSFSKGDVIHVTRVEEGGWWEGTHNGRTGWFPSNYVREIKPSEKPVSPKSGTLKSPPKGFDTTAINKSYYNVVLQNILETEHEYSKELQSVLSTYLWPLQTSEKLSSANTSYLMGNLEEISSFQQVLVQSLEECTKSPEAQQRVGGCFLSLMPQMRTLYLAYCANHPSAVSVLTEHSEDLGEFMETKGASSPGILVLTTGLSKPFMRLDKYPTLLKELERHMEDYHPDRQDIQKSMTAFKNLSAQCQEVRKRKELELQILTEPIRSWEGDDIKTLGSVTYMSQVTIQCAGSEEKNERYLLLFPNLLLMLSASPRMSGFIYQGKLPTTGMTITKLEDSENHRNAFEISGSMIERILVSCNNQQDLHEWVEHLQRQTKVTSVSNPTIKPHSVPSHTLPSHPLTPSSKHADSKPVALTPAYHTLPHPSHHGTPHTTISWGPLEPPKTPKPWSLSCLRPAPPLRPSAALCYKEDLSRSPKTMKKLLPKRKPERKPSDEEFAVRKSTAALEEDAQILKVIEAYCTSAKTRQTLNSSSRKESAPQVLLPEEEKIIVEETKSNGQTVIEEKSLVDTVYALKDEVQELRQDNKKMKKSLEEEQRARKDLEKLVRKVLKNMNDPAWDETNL

Variants of: B1
Conditions: with arhg7_rat Arhgef7, O55043

| Variant | effect of a mutation on the interaction |
| --- | --- |
| R904A | decreasing interaction strength |
